Measurements: patent publication US20090099029

T1: Bovine, dephosphorylated, Myelin Basic Protein (MBP), P02687
T1 chain: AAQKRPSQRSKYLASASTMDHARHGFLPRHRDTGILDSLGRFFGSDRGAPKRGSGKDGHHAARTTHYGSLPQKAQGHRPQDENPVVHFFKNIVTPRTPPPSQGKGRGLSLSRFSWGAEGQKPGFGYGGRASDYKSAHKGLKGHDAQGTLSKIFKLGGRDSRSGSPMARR

B1: GRK7 (protein)
chain: MVDMGALDNLIANTAYLQARKPSDCDSKELQRRRRSLALPGLQGCAELRQKLSLNFHSLCEQQPIGRRLFRDFLATVPTFRKAATFLEDVQNWELAEEGPTKDSALQGLVATCASAPAPGNPQPFLSQAVATKCQAATTEEERVAAVTLAKAEAMAFLQEQPFKDFVTSAFYDKFLQWKLFEMQPVSDKYFTEFRVLGKGGFGEVCAVQVKNTGKMYACKKLDKKRLKKKGGEKMALLEKEILEKVSSPFIVSLAYAFESKTHLCLVMSLMNGGDLKFHIYNVGTRGLDMSRVIFYSAQIACGMLHLHELGIVYRDMKPENVLLDDLGNCRLSDLGLAVEMKGGKPITQRAGTNGYMAPEILMEKVSYSYPVDWFAMGCSIYEMVAGRTPFKDYKEKVSKEDLKQRTLQDEVKFQHDNFTEEAKDICRLFLAKKPEQRLGSREKSDDPRKHHFFKTINFPRLEAGLIEPPFVPDPSVVYAKDIAEIDDFSEVRGVEFDDKDKQFFKNFATGAVPIAWQEEIIETGLFEELNDPNRPTGCEEGNSSKSGVCLLL
B2: EPHA5 (protein)
chain: SGSCCECGCGRASSLCAVAHPSLIWRCGYSKAKQDPEEEKMHFHNGHIKLPGVRTYIDPHTYEDPNQAVHEFAKEIEASCITIERVIGAGEFGEVCSGRLKLPGKRELPVAIKTLKVGYTEKQRRDFLGEASIMGQFDHPNIIHLEGVVTKSKPVMIVTEYMENGSLDTFLKKNDGQFTVIQLVGMLRGISAGMKYLSDMGYVHRDLAARNILINSNLVCKVSDFGLSRVLEDDPEAAYTTRGGKIPIRWTAPEAIAFRKFTSASDVWSYGIVMWEVVSYGERPYWEMTNQDVIKAVEEGYRLPSPMDCPAALYQLMLDCWQKERNSRPKFDEIVNMLDKLIRNPSSLKTLVNASCRVSNLLAEHSPLGSGAYRSVGEWLEAIKMGRYTEIFMENGYSSMDAVAQVTLEDLRRLGVTLVGHQKKIMNSLQEMKVQLVNGMVPL
B3: IRAK4 (protein)
chain: MNKPITPSTYVRCLNVGLIRKLSDFIDPQEGWKKLAVAIKKPSGDDRYNQFHIRRFEALLQTGKSPTSELLFDWGTTNCTVGDLVDLLIQNEFFAPASLLLPDAVPKTANTLPSKEAITVQQKQMPFCDKDRTLMTPVQNLEQSYMPPDSSSPENKSLEVSDTRFHSFSFYELKNVTNNFDERPISVGGNKMGEGGFGVVYKGYVNNTTVAVKKLAAMVDITTEELKQQFDQEIKVMAKCQHENLVELLGFSSDGDDLCLVYVYMPNGSLLDRLSCLDGTPPLSWHMRCKIAQGAANGINFLHENHHIHRDIKSANILLDEAFTAKISDFGLARASEKFAQTVMTSRIVGTTAYMAPEALRGEITPKSDIYSFGVVLLEIITGLPAVDEHREPQLLLDIKEEIEDEEKTIEDYIDKKMNDADSTSVEAMYSVASQCLHEKKNKRPDIKKVQQLLQEMTAS
B4: IKBKB (protein)
chain: MSWSPSLTTQTCGAWEMKERLGTGGFGNVIRWHNQETGEQIAIKQCRQELSPRNRERWCLEIQIMRRLTHPNVVAARDVPEGMQNLAPNDLPLLAMEYCQGGDLRKYLNQFENCCGLREGAILTLLSDIASALRYLHENRIIHRDLKPENIVLQQGEQRLIHKIIDLGYAKELDQGSLCTSFVGTLQYLAPELLEQQKYTVTVDYWSFGTLAFECITGFRPFLPNWQPVQWHSKVRQKSEVDIVVSEDLNGTVKFSSSLPYPNNLNSVLAERLEKWLQLMLMWHPRQRGTDPTYGPNGCFKALDDILNLKLVHILNMVTGTIHTYPVTEDESLQSLKARIQQDTGIPEEDQELLQEAGLALIPDKPATQCISDGKLNEGHTLDMDLVFLFDNSKITYETQISPRPQPESVSCILQEPKRNLAFFQLRKVWGQVWHSIQTLKEDCNRLQQGQRAAMMNLLRNNSCLSKMKNSMASMSQQLKAKLDFFKTSIQIDLEKYSEQTEFGITSDKLLLAWREMEQAVELCGRENEVKLLVERMMALQTDIVDLQRSPMGRKQGGTLDDLEEQARELYRRLREKPRDQRTEGDSQEMVRLLLQAIQSFEKKVRVIYTQLSKTVVCKQKALELLPKVEEVVSLMNEDEKTVVRLQEKRQKELWNLLKIACSKVRGPVSGSPDSMNASRLSQPGQLMSQPSTASNSLPEPAKKSEELVAEAHNLCTLLENAIQDTVREQDQSFTALDWSWLQTEEEEHSCLEQAS
B5: GSK3A (protein)
chain: MSGGGPSGGGPGGSGRARTSSFAEPGGGGGGGGGGPGGSASGPGGTGGGKASVGAMGGGVGASSSGGGPGGSGGGGSGGPGAGTSFPPPGVKLGRDSGKVTTVVATLGQGPERSQEVAYTDIKVIGNGSFGVVYQARLAETRELVAIKKVLQDKRFKNRELQIMRKLDHCNIVRLRYFFYSSGEKKDELYLNLVLEYVPETVYRVARHFTKAKLTIPILYVKVYMYQLFRSLAYIHSQGVCHRDIKPQNLLVDPDTAVLKLCDFGSAKQLVRGEPNVSYICSRYYRAPELIFGATDYTSSIDVWSAGCVLAELLLGQPIFPGDSGVDQLVEIIKVLGTPTREQIREMNPNYTEFKFPQIKAHPWTKVFKSRTPPEAIALCSSLLEYTPSSRLSPLEACAHSFFDELRCLGTQLPNNRPLPPLFNFSAGELSIQPSLNAILIPPHLRSPAGTTTLTPSSQALTETPTSSDWQSTDATPTLTNSS

Target: T1, Bovine, dephosphorylated, Myelin Basic …

Question: B1 was tested. Which “MBP Kinase Activity” value did it give?
Answer: Negative

Question: With B2 as the protein, how does the “MBP Kinase Activity” value read?
Answer: Negative

Question: With B3 as the protein, how does the “MBP Kinase Activity” value read?
Answer: Strong

Question: With B4 as the protein, how does the “MBP Kinase Activity” value read?
Answer: Weak

Question: How did the “MBP Kinase Activity” value turn out when B5 was run?
Answer: Weak
